The source of these data is patent publication US20190127480A1 (Regeneron, published 2019).

One may read the Kd as the free concentration of one partner at which half of the binding sites on the other are occupied at equilibrium, for simple one-to-one binding. The term koff denotes the first-order rate constant of dissociation. A low value points to a long-lived complex. For orientation: kon means the rate constant with which the complex forms. Lower therefore signals slow association.

B1: H2M2689N (antibody, V domains shown)
VH: QVQLVESGGGVVQPGRSLRLSCAASGFTFSRKGMHWVRQAPVKGLEWVAVISYDGSNKYYADSVKGRFTISRDNSKNTLYLQMNSLTAEDTAVYYCAKEGGHDYGGTFDYWGQGTLVTVSS
VL: not shown
notes: Hybridoma antibody, human variable regions, mouse IgG2 Fc
B2: H2M2690N (antibody, V domains shown)
VH: EVQLVESGGGLVQPGRSLRLSCAASGFTFDDYTMHWVRQAPGKGLEWVSGISWNSGSIGYADSVKGRFTISRDNAKKSLYLQMNSLRAEDTALYYCAKDNSGYGHYYYGMDVWGQGTTVTVAS
VL: EIVMTQSPATLSVSPGERATLSCRASQSVSSNLAWYQQKPGQAPRLLIYGASTRATGIPARFSGSGSGTEFTLTISSLQSEDFAVYYCQHYINWPLTFGGGTKVEIK
notes: as for B1
B3: H2M2691N (antibody, V domains shown)
VH: EVQLVESGGGLVQPGRSLRLSCAASGFTFDDYTMHWVRQAPGKGLEWVSGISWNSGSIGYADSVKGRFTISRDNAKKSLYLQMNSLRAEDTALYYCAKDNSGYGHYYYGMDVWGQGTTVTVAS
VL: EIVMTQSPATLSVSPGERATLSCRASQSVSSNLAWYQQKPGQAPRLLIYGASTRATGIPARFSGSGSGTEFTLTISSLQSEDFAVYYCQHYINWPLTFGGGTKVEIK
notes: as for B1
B4: H2M2707N (antibody, V domains shown)
VH: QVQLVESGGGVVQPGRSLRLSCIASGFTFRSYGMHWVRQAPGKGLEWVAMIYYDGNNKYYADSVRGRFTISRDNSKNTLYLQMNSLRADDTAVYFCARGPGYNWLDPWGQGTLVTVSS
VL: EIVMTQSPATLSVSPGERATLSCRASQSVSSNLAWYQQKPGQAPRLLIYGASTRATGIPARFSGSGSGTEFTLTISSLQSEDFAVYYCQQYNNRPLTFGGGTKVEIK
notes: as for B1
B5: H2M2708N (antibody, V domains shown)
VH: QVQLVESGGGVVQPGRSLRLSCAASGFTFRSFGMHWVRQAPGRGLEWVAMIYFDGKNKYYADSVRGRFTISRDNSKNTLYLEMSSLRAEDTAVYFCARGPGYNWLDPWGQGTLVTVSS
VL: EIVMTQSPATLSVSPGERVTLSCRASQSISRNLAWYQQKPGQAPRLLIYGASTRATGVPARFSGSGSGTEFTLTISSLQSEDFAVFHCQQYNNRPLTFGGGTEVEIK
notes: as for B1
B6: H1M2692N (antibody, V domains shown)
VH: EVQLVESGGGLVQPGGSLRLSCAASGFSFDDYTMHWVRQPPGKGLEWVSGISWNSGSIGYADSVKGRFTISRDNAKNSLYLQMNSLRAGDTALYYCAKDNSGYGYYYYYGMDVWGQGTTVTVSS
VL: EIVMTQSPATLSVSPGERATLSCRASQSVSSNLAWYQQKPGQAPRLLIYGASTRATGIPARFSGSGSGTEFTLTISSLQSEDFAVYYCQQYYNWPLTFGGGTKVEIK
notes: Hybridoma antibody, human variable regions, mouse IgG1 Fc
B7: H1M2712N (antibody, V domains shown)
VH: EVQLVESGGGLVQPGGSLRLSCAATGFTFDDFTMHWVRQAPGKGLEWVSGISWNSGSIGYVDSVKGRFTISRDNAKNSLYLQMNSLRAEDTALYYCAKDNSGYGYYYYGMDVWGQGTTVTVSS
VL: EIVMTQSPATLSVSPGERATLSCRASHSVSRNSAWYQQKPGQAPRLLIYGASTRATGIPARFSGSGSGTEFTLTISSLQSEDFAIYYCQQYNNWPLTFGGGTKVEIK
notes: Mouse IgG1 Fc form
B8: H2M2710N (antibody, V domains shown)
VH: QVQLVESGGGVVQPGRSLRLSCAASGFTFRSFGMHWVRQAPGRGLEWVAMIYFDGKNKYYADSVRGRFTISRDNSKNTLYLEMSSLRAEDTAVYFCARGPGYNWLDPWGQGTLVTVSS
VL: EIVMTQSPATLSVSPGERATLSCRASQSVSRNLAWYQQKPGQAPRLLIYGASTRATGVPARFSGSGSGTEFTLTISSLQSEDFAVFHCQQYNNRPLTFGGGTEVEIK
notes: as for B1
B9: H2M2711N (antibody, V domains shown)
VH: QVQLVESGGGVVQPGRSLRLSCAASGFTFRSFGMHWVRQAPGRGLEWVAMIYFDGKNKYYADSVRGRFTISRDNSKNTLYLEMSSLRAEDTAVYFCARGPGYNWLDPWGQGTLVTVSS
VL: EIVMTQSPATLSVSPGERATLSCRASQSVSRNLAWYQQKPGQAPRLLIYGASTRATGVPARFSGSGSGTEFTLTISSLQSEDFAVFHCQQYNNRPLTFGGGTEVEIK
notes: as for B1
B10: H2M2886N (antibody, V domains shown)
VH: QVQLVESGGGVVQPGRSLRLSCAASGFTFRSFGMHWVRQAPGRGLEWVAMIYFDGKNKYYADSVRGRFTISRDNSKNTLYLEMSSLRAEDTAVYFCARGPGYNWLDPWGQGTLVTVSS
VL: EIVMTQSPATLSVSPGERVILSCRASQSISRNLAWYQQKPGQAPRLLIYGATTRATGVPARFSGSGSGTEFTLTISSLQSEDFAVFYCQQYNNRPLTFGGGTEVEIK
notes: as for B1
B11: H2M2774N (antibody, V domains shown)
VH: QVQLVESGGGVVQPGRSLRLSCVASGFTFRSYGMHWVRQAPGKGLQWVAMIYYDGKNKYYADSVRGRFTISRDNSKNTLYLQMNSLRAEDTAMYFCARGPGYNWLDPWGQGTLVTVSS
VL: EIVMTQSPATLSVSPGERATLSCRASQRISSNLAWYQQKPGQAPRLLIYGASTRATGSPARFSGSGSGTEFTLTISSLQSEDVAVYYCQQHNNWPLTFGGGTKVEIK
notes: as for B1
B12: H2M2706N (antibody, V domains shown)
VH: QVQLVESGGGVVQPGRSLRLSCAASGFTFRSYAMHWVRQAPGKGLEWVAMVYYDGNNQYYADSVRGRFTISRDNSKNTLYLQMNSLRADDTAVYFCARGPGYNWLDPWGQGTLVTVSS
VL: EIVMTQSPATLSVSPGERATLSCRASQSVSRNLAWYQQKPGQAPRLLIYGASTRATGIPARFSGSGSGTDFTLTISSLQSEDFAVYYCQQYNNWPLTFGGGTKVVIK
notes: as for B1
B13: H2M2885N (antibody, V domains shown)
VH: QVQLVESGGGVVQPGRSLRLSCAASGFTFRSFGMHWVRQAPGRGLEWVAMIYFDGKNKYYADSVRGRFTISRDNSKNTLYLEMSSLRAEDTAVYFCARGPGYNWLDPWGQGTLVTVSS
VL: EIVMTQSPATLSVSPGERVILSCRASQSISRNLAWYQQKPGQAPRLLIYGATTRATGVPARFSGSGSGTEFTLTISSLQSEDFAVFYCQQYNNRPLTFGGGTEVEIK
notes: as for B1
B14: H2M2775N (antibody, V domains shown)
VH: QVQLVESGGGVVQPGRSLRLSCAASGFTFRSFGMHWVRQAPGRGLEWVAMIYFDGKNKYYADSVRGRFTISRDNSKNTLYLEMSSLRAEDTAVYFCARGPGYNWLDPWGQGTLVTVSS
VL: EIVMTQSPATLSVSPGERVILSCRASQSISRNLAWYQQKPGQAPRLLIYGATTRATGVPARFSGSGSGTEFTLTISSLQSEDFAVFYCQQYNNRPLTFGGGTEVEIK
notes: as for B1
B15: H2M2689N (antibody, mouse IgG2, V domains shown)
VH: QVQLVESGGGVVQPGRSLRLSCAASGFTFSRKGMHWVRQAPVKGLEWVAVISYDGSNKYYADSVKGRFTISRDNSKNTLYLQMNSLTAEDTAVYYCAKEGGHDYGGTFDYWGQGTLVTVSS
VL: not shown
notes: H2M: mouse IgG2 Fc, human variable regions; divalent
B16: H1M3544N (antibody, mouse IgG1, V domains shown)
VH: EVQLVESGGGLVQPGRSLRLSCAASGFTFDDYTMHWVRQVPGKGLEWVSGISWNSGSLAYADSVKGRFTISRDNAKNSLYLQMNSLHPEDTALYYCVKDGSGYGHYSYYGLDVWGQGTTVTVSS
VL: not shown
notes: H1M: mouse IgG1 Fc, human variable regions; divalent
B17: H2M2779N (antibody, V domains shown)
VH: EVQLVESGGGLVQPGGSLRLSCAATGFTFDDFTMHWVRQAPGKGLEWVSGISWNSGSIGYVDSVKGRFTISRDNAKNSLYLQMNSLRAEDTALYYCAKDNSGYGYYYYGMDVWGQGTTVTVSS
VL: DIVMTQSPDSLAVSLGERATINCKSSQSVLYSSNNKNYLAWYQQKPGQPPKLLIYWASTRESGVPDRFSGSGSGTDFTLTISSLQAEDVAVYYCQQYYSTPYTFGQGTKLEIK
notes: as for B15

T2 sequence (P07766 23-126 limits assumed, stated change not applied, chain 1 of 2): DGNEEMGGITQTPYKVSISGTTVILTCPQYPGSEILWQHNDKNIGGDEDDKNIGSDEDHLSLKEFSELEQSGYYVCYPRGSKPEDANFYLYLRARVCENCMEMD
T2 sequence (P04234 22-105 limits assumed, stated change not applied, chain 2 of 2): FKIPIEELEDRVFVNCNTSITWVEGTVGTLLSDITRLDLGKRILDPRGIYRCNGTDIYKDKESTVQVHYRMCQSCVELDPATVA

The target in the first experiment is T1, Soluble heterodimeric CD3 protein (hCD3-epsilon/hCD3-delta) with a human Fc tag (hFcΔAdp/hFc) or a mouse Fc … (human, UniProt P07766 23-126; P04234 22-105).
T1 construct: also called hCD3ε/δ; not shown: Fc tag: human (hFcΔAdp/hFc); which tag was used in Ta
T1 sequence (P07766 23-126 limits assumed, stated change not applied, chain 1 of 2): as the sequence (P07766 23-126 limits assumed, stated change not applied, chain 1 of 2) above
T1 sequence (P04234 22-105 limits assumed, stated change not applied, chain 2 of 2): as the sequence (P04234 22-105 limits assumed, stated change not applied, chain 2 of 2) above
The experiment can be described thus: SPR Biacore, 25 C, antibody-capture format. Here is the method:
(§1) Measurements were conducted on a T200 Biacore™ instrument.
Soluble heterodimeric CD3 protein (hCD3-epsilon/hCD3-delta; SEQ ID NOs:1652/1653) with either a human Fc tag (hFcΔAdp/hFc; SEQ ID NOs:1683/1684) or a mouse Fc tag (mFcΔAdp/mFc; SEQ ID NOs:1685/1686) was injected over the antibody captured surface and the binding response was recorded. Heterodimeric CD3 protein was purified using the method described in Davis et al. (US2010/0331527).
(§2) Kinetic association (kₐ) and dissociation (kd) rate constants were determined by processing and fitting the data to a 1:1 binding model using Scrubber 2.0 curve fitting software. Binding dissociation equilibrium constants (KD) and dissociative half-lives (t₁₁₂) were calculated from the kinetic rate constants as: KD (M)=kd/kₐ; and t_{1/2} (min)=(ln 2/(60*kd). NT=not tested; NB=no binding observed.
For orientation: Surface plasmon resonance follows binding to a sensor surface in real time, without labels.
On to B1, for which the affinity, expressed as Kd, was 4.18 nM; the “T½” value is 4 min; the koff came out at 0.00323 s⁻¹; the kon stood at 773000 M⁻¹ s⁻¹.
With B2, the affinity, expressed as Kd, was 20.9 nM; the “T½” value came out at 57 min; the off-rate (koff) was 0.000202 s⁻¹; the kon amounted to 9700 M⁻¹ s⁻¹.
B3: the Kd turned out to be 20.1 nM, the “T½” value worked out at 56 min, the off-rate (koff) came out at 0.000207 s⁻¹ and the association rate constant (kon) worked out at 10300 M⁻¹ s⁻¹.
For the molecule B4, binding was characterised by a dissociation constant (Kd) of 63.5 nM, the “T½” value turned out to be 6 min, the koff came out at 0.00187 s⁻¹ and the association rate constant (kon) worked out at 29500 M⁻¹ s⁻¹.
The matching figures for B5: 8.82 nM, 19 min, 0.000612 s⁻¹ and 69400 M⁻¹ s⁻¹.
Consider B6, for which the Kd came out at 53.9 nM, the “T½” value was 27 min, the koff stood at 0.000434 s⁻¹ and the kon was determined as 8050 M⁻¹ s⁻¹.
For B7 the same measures were 23.5 nM, 53 min, 0.000219 s⁻¹ and 9320 M⁻¹ s⁻¹.
For B8, the affinity, expressed as Kd, was 11.2 nM; the “T½” value worked out at 15 min; the koff is 0.000753 s⁻¹; the on-rate constant (kon) is 67200 M⁻¹ s⁻¹.
Turning to B9, the affinity, expressed as Kd, was 11.4 nM; the “T½” value turned out to be 15 min; the koff worked out at 0.000767 s⁻¹; the kon turned out to be 67200 M⁻¹ s⁻¹.
For B10 the same measures were 8.96 nM, 18 min, 0.000653 s⁻¹ and 72900 M⁻¹ s⁻¹.
As for B11, the equilibrium dissociation constant (Kd) came out at 11.8 nM, the “T½” value was 13 min, the off-rate constant (koff) was 0.000918 s⁻¹ and the kon came to 77900 M⁻¹ s⁻¹.
The matching figures for B12: 135 nM, 3 min, 0.00444 s⁻¹ and 32900 M⁻¹ s⁻¹.
For the molecule B13, the Kd was found to be 9.54 nM, the “T½” value was found to be 18 min, the koff is 0.000651 s⁻¹ and the on-rate (kon) turned out to be 68200 M⁻¹ s⁻¹.
Consider B14, for which the dissociation constant Kd was found to be 8.98 nM, the “T½” value turned out to be 18 min, the koff was found to be 0.000626 s⁻¹ and the kon was 69700 M⁻¹ s⁻¹.

A further experiment concerns the target T2, Soluble heterodimeric CD3 protein (hCD3-epsilon/hCD3-delta) with either a human Fc tag (hFcΔAdp/hFc) or a … (human, UniProt P07766 23-126; P04234 22-105).
T2 construct: also called hCD3ε/δ; not shown: Fc tag: human (hFcΔAdp/hFc)
Put plainly: SPR Biacore 25C antigen-capture. As to the method:
as §1
In the antigen-capture format, heterodimeric CD3 protein was captured using a rabbit anti-mouse Fc or mouse anti-human Fc and the respective antibodies were injected over the captured antigen.
as §2
As for B15, the Kd came out at 0.0583 nM, the “T½” value is 116 min, the koff was 9.97e-05 s⁻¹ and the kon was determined as 1.71e+06 M⁻¹ s⁻¹.
On to B16, for which the “T½” value is 193 min.
In the case of B17, the Kd was 0.0938 nM, the “T½” value stood at 941 min, the dissociation rate constant (koff) turned out to be 1.23e-05 s⁻¹ and the kon stood at 128000 M⁻¹ s⁻¹.
